In paper PMC5134900 (Cell, 2016):
Read-outs that look alike come from different tables or passages of the source.

T1: SIRT3-FLAG (human, UniProt Q9NTG7 118-399)
T1 sequence (looked up): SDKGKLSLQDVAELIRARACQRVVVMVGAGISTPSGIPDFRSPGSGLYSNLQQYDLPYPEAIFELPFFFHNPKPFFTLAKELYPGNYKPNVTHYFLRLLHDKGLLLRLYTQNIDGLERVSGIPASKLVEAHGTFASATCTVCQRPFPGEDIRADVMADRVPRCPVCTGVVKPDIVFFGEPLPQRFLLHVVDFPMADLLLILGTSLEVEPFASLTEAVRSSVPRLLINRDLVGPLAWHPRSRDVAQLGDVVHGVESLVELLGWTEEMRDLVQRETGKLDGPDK


Key:
[1] = target: T1, SIRT3-FLAG; assay: BLI
[2] = target: T1, SIRT3-FLAG; assay: BLI; remark: listed apart in the source
[3] = target: SIRT3-HA (HeLa) (human); assay: proximity ligation

Row | Binder | Kd [1] | Kd [2] | PLA signals per cell (signals per cell) [3] | percent of cells with PLA signal [3]
1 | ATP5O (recombinant) (domain or fragment, human, UniProt P48047 46-213, looked up) YSAASKQNKLEQVEKELLRVAQILKEPKVAASVLNPYVKRSIKVKSLNDITAKERFSPLTTNLINLLAENGRLSNTQGVVSAFSTMMSVHRGEVPCTVTSASPLEEATLSELKTVLKSFLSQGQVLKLEAKTDPSILGGMIVRIGEKYVDMSVKTKIQKLGRAMREIV | 400 nM | 100 nM |  | 
2 | ATP5O (endogenous, HeLa) (natural protein) FAKLVRPPVQVYGIEGRYATALYSAASKQNKLEQVEKELLRVAQILKEPKVAASVLNPYVKRSIKVKSLNDITAKERFSPLTTNLINLLAENGRLSNTQGVVSAFSTMMSVHRGEVPCTVTSASPLEEATLSELKTVLKSFLSQGQVLKLEAKTDPSILGGMIVRIGEKYVDMSVKTKIQKLGRAMREIV |  |  | < 10 | 40%
